Measured values published in patent publication EP4800033A1, “HUMANIZED ANTI-CKAP4 ANTIBODY OR ANTIGEN-BINDING FRAGMENT THEREOF” (The University of Osaka, priority 2023, dated 2025).

T1: human CKAP4 extracellular region (465-602 amino acids) (human, UniProt Q07065 465-602)
T1 construct: also called extracellular region of CKAP4; extracellular domain of CKAP4
T1 sequence: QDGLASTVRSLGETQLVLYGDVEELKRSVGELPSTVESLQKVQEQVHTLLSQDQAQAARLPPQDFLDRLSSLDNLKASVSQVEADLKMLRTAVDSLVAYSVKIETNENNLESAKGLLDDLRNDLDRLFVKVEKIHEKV

T2: CKAP4 in lysates of mouse lung cancer cells Lewis Lung Carcinoma (LLC) (mouse, UniProt Q8BMK4 1-575)
T2 construct: also called mouse CKAP4; endogenous CKAP4 (mouse tissues)
T2 sequence (looked up): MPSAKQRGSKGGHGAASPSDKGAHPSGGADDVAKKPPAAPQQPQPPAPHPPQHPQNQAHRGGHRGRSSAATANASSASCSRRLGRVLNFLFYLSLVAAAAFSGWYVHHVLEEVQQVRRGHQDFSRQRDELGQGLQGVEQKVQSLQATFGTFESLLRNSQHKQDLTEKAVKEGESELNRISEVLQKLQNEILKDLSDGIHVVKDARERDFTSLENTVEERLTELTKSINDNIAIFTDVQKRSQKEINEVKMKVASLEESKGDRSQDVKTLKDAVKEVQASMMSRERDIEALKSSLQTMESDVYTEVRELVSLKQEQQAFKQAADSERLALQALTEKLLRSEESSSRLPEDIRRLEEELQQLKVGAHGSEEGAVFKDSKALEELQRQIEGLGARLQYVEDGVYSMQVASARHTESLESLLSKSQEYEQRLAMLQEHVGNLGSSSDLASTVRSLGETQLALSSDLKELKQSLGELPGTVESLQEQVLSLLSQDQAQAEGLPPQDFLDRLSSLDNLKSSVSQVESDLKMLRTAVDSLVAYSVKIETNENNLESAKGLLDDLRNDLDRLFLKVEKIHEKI


Key:
S2-CP8 cells = test: Combination therapy assay, S2-CP8 xenograft tumors; assay type: in vivo, mice; details: single agent
Experimental: Hv1Lt1 antibody or control IgG (280 µg/dose) was intraperitoneally administered twice a week. Gemcitabine (100 µg/dose, once weekly) or nab-PTX (10 mg/kg, twice weekly) was intraperitoneally administered. While lenvatinib (1 mg/kg) or a 0.5% (wt/vol) methylcellulose 400 solution was orally administered once a day, 6 days per week, tumor formation was continued for an additional 21 days, after which the mice were euthanized. The volume and weight of the excised tumors were measured.

HeLa S3 cells = test: Propidium iodide nuclear staining / apoptosis; assay type: cell-based, human
[1] = biological target: T1, human CKAP4 extracellular region …; test: SPR (Biacore T200, 25 C), antibody captured on anti-mouse IgG CM5 chip, CKAP4 465-602 as analyte, 1:1 Langmuir fit
[2] = biological target: T1, human CKAP4 extracellular region …; test: SPR (Biacore T200, 25 C), antibody captured on anti-human IgG CM5 chip, CKAP4 465-602 as analyte, 1:1 Langmuir fit
[3] = biological target: T2, CKAP4 in lysates of mouse lung cancer …; test: blot of LLC cell lysate

Row | Molecule | Kd [2] [nM] | koff [2] [s⁻¹] | kon [2] [M⁻¹ s⁻¹] | further results
1 | Nc1ccn([C@@H]2O[C@H](CO)[C@@H](O)C2(F)F)c(=O)n1 [gemcitabine] | – | – | – | antitumor effects in vivo as single agents (S2-CP8 cells): antitumor effects
2 | CN[C@@H]1C[C@H]2O[C@@](C)([C@@H]1OC)n1c3ccccc3c3c4c(c5c6ccccc6n2c5c31)C(=O)NC4 [staurosporine] | – | – | – | nuclear staining with propidium iodide (HeLa S3 cells): strongly stained
3 | Mouse anti-CKAP4 antibody 3F11-2B10 (antibody, V domains shown, Mouse monoclonal antibody; also called Mouse antibody 3F11-2B10; original mouse anti-CKAP4 antibody) VH: VQLQQQPGTELVKPGASVKLSCKASGFTFTSYWMHWVKQRPGQGLEWIGNINPSNGGTNYNAKFKSKATLTVDKSSSTAYMQLSSLTSEDSAVYYCARWVSFSYRGAMDYWGQGTSVTVSS VL: DIVLTQSPAILSVTPGDGVSLSCRASRAIRNNLHWFQQKSHESPRLLIKYVSQSISGIPSRFSGSGSGTDFTLSVDSVETEDFGVYFCQQSDSWPYTFGGGTKLEIK | – | – | – | Kd [1]: 14.5 nM; koff [1]: 0.0018 s⁻¹; kon [1]: 125000 M⁻¹ s⁻¹
4 | Humanized anti-CKAP4 antibody Hv1Lt1 (antibody, human IgG1, V domains shown, also called HvlLtl; Humanized antibody Hv1Lt1) VH: QVQLVQSGAEVKKPGASVKVSCKASGFTFTSYWMHWVRQAPGQGLEWIGNINPSNGGTNYNAKFKSRVTMTRDTSTSTVYMELSSLRSEDTAVYYCARWVSFSYRGAMDYWGQGTLVTVSS VL: EIVLTQSPDFQSVTPKEKVTITCRASRAIRNNLHWYQQKPDQSPKLLIKYVSQSISGVPSRFSGSGSGTDFTLTINSLEAEDAATYYCQQSDSWPYTFGQGTKLEIK | 0.761 | 1.14e-05 | 15000 | –
5 | Humanized anti-CKAP4 antibody Hv2Lt1 (antibody, human IgG1, V domains shown, also called Hv2Ltl; Humanized antibody Hv2Ltl) VH: QVQLVQSGAEVKKPGASVKVSCKASGYTFTSYWMHWVRQAPGQGLEWMGIINPSNGGTSYAQKFQGRVTMTRDTSTSTVYMELSSLRSEDTAVYYCARWVSFSYRGAMDYWGQGTLVTVSS VL: EIVLTQSPDFQSVTPKEKVTITCRASRAIRNNLHWYQQKPDQSPKLLIKYVSQSISGVPSRFSGSGSGTDFTLTINSLEAEDAATYYCQQSDSWPYTFGQGTKLEIK | 0.0449 | 1.7e-06 | 37900 | binding result [3]: binds
